Where a chain is given by its changes, count along the chain named. Names and notes keep the numbering of the source.
B1: equine IgG4 Y436Q (antibody, part only; not given: variable domains, not shown: another chain or arm of the molecule)
constant: ASTTAPKVFPLASHSAATSGSTVALGCLVSSYFPEPVTVSWNSGALTSGVHTFPSVLQSSGLYSLSSMVTVPASSLKSQTYICNVAHPASSTKVDKKIVIKECNGGCPAECLQVGPSVFIFPPKPKDVLMISRTPTVTCVVVDVGHDFPDVQFNWYVDGVETHTATTEPKQEQFNSTYRVVSVLPIQHKDWLSGKEFKCKVNNKALPAPVERTISKPTGQPREPQVYVLAPHRDELSKNKVSVTCLVKDFYPTDIDIEWKSNGQPEPETKYSTTPAQLDSDGSYFLYSKLTVETNRWQQGTTFTCAVMHEALHNHQTEKSVSKSPGK
B2: equine IgG4 T286Q (antibody, part only; not given: Variable domains, not shown: another chain or arm of the molecule)
constant: B1 constant with T164Q, Q316Y
B3: equine IgG4 T286H (antibody, part only; not given: variable domains, not shown: another chain or arm of the molecule)
constant: B1 constant with T164H, Q316Y
B4: equine IgG4 T286E (antibody, part only; not given: variable domains, not shown: another chain or arm of the molecule)
constant: B1 constant with T164E, Q316Y
B5: equine IgG4 T286P (antibody, part only; not given: variable domains, not shown: another chain or arm of the molecule)
constant: B1 constant with T164P, Q316Y
B6: equine IgG4 Y436T (antibody, part only; not given: variable domains, not shown: another chain or arm of the molecule)
constant: B1 constant with Q316T
B7: equine IgG4 Y436V (antibody, part only; not given: variable domains, not shown: another chain or arm of the molecule)
constant: B1 constant with Q316V
B8: equine IgG4 T286I (antibody, part only; not given: variable domains, not shown: another chain or arm of the molecule)
constant: B1 constant with T164I, Q316Y
B9: equine IgG4 T286D (antibody, part only; not given: variable domains, not shown: another chain or arm of the molecule)
constant: B1 constant with T164D, Q316Y
B10: equine IgG4 Y436S (antibody, part only; not given: variable domains, not shown: another chain or arm of the molecule)
constant: B1 constant with Q316S
B11: equine IgG4 T286K (antibody, part only; not given: variable domains, not shown: another chain or arm of the molecule)
constant: B1 constant with T164K, Q316Y
B12: equine IgG4 T286L (antibody, part only; not given: variable domains, not shown: another chain or arm of the molecule)
constant: B1 constant with T164L, Q316Y
B13: equine IgG4 T286G (antibody, part only; not given: variable domains, not shown: another chain or arm of the molecule)
constant: B1 constant with T164G, Q316Y
B14: equine IgG4 T286M (antibody, part only; not given: variable domains, not shown: another chain or arm of the molecule)
constant: B1 constant with T164M, Q316Y
B15: equine IgG4 Y436W (antibody, part only; not given: variable domains, not shown: another chain or arm of the molecule)
constant: B1 constant with Q316W
B16: equine IgG4 T286W (antibody, part only; not given: Variable domains, not shown: another chain or arm of the molecule)
constant: B1 constant with T164W, Q316Y
B17: equine IgG4 T286V (antibody, part only; not given: variable domains, not shown: another chain or arm of the molecule)
constant: B1 constant with T164V, Q316Y
B18: equine IgG4 T286R (antibody, part only; not given: variable domains, not shown: another chain or arm of the molecule)
constant: B1 constant with T164R, Q316Y
B19: equine IgG4 Y436R (antibody, part only; not given: variable domains, not shown: another chain or arm of the molecule)
constant: B1 constant with Q316R
B20: equine IgG4 T286F (antibody, part only; not given: variable domains, not shown: another chain or arm of the molecule)
constant: B1 constant with T164F, Q316Y
B21: equine IgG4 T286Y (antibody, part only; not given: variable domains, not shown: another chain or arm of the molecule)
constant: B1 constant with T164Y, Q316Y
B22: equine IgG4 T286S (antibody, part only; not given: Variable domains, not shown: another chain or arm of the molecule)
constant: B1 constant with T164S, Q316Y
B23: equine IgG4 T286C (antibody, part only; not given: variable domains, not shown: another chain or arm of the molecule)
constant: B1 constant with T164C, Q316Y
B24: equine IgG4 T286A (antibody, part only; not given: variable domains, not shown: another chain or arm of the molecule)
constant: B1 constant with T164A, Q316Y
B25: equine IgG1 T286W (antibody, part only; not given: Variable domains, not shown: another chain or arm of the molecule)
constant: ASTTAPKVFALAPGCGTTSDSTVALGCLVSGYFPEPVKVSWNSGSLTSGVHTFPSVLQSSGFYSLSSMVTVPASTWTSETYICNVVHAASNFKVDKRIEPIPDNHQKVCDMSKCPKCPAPELLGGPSVFIFPPNPKDTLMITRTPEVTCVVVDVSQENPDVKFNWYMDGVEVRWATTRPKEEQFNSTYRVVSVLRIQHQDWLSGKEFKCKVNNQALPQPIERTITKTKGRSQEPQVYVLAPHPDELSKSKVSVTCLVKDFYPPEINIEWQSNGQPELETKYSTTQAQQDSDGSYFLYSKLSVDRNRWQQGTTFTCGVMHEALHNHYTQKNVSKNPGK
B26: equine IgG1 Q311N (antibody, part only; not given: Variable domains, not shown: another chain or arm of the molecule)
constant: B25 constant with W174T, Q199N
B27: equine IgG1 Q311D (antibody, part only; not given: variable domains, not shown: another chain or arm of the molecule)
constant: B25 constant with W174T, Q199D
B28: equine IgG1 Q311A (antibody, part only; not given: variable domains, not shown: another chain or arm of the molecule)
constant: B25 constant with W174T, Q199A
B29: equine IgG1 Q311G (antibody, part only; not given: variable domains, not shown: another chain or arm of the molecule)
constant: B25 constant with W174T, Q199G
B30: equine IgG1 Q311I (antibody, part only; not given: variable domains, not shown: another chain or arm of the molecule)
constant: B25 constant with W174T, Q199I
B31: equine IgG1 Q311R (antibody, part only; not given: variable domains, not shown: another chain or arm of the molecule)
constant: B25 constant with W174T, Q199R
B32: equine IgG1 M252F (antibody, part only; not given: variable domains, not shown: another chain or arm of the molecule)
constant: B25 constant with M140F, W174T
B33: equine IgG1 T286Y (antibody, part only; not given: variable domains, not shown: another chain or arm of the molecule)
constant: B25 constant with W174Y
B34: equine IgG1 M252K (antibody, part only; not given: variable domains, not shown: another chain or arm of the molecule)
constant: B25 constant with M140K, W174T
B35: equine IgG1 Q311C (antibody, part only; not given: variable domains, not shown: another chain or arm of the molecule)
constant: B25 constant with W174T, Q199C
B36: equine IgG1 Q311M (antibody, part only; not given: variable domains, not shown: another chain or arm of the molecule)
constant: B25 constant with W174T, Q199M
B37: equine IgG1 Q311L (antibody, part only; not given: Variable domains, not shown: another chain or arm of the molecule)
constant: B25 constant with W174T, Q199L
B38: equine IgG1 Q311T (antibody, part only; not given: variable domains, not shown: another chain or arm of the molecule)
constant: B25 constant with W174T, Q199T
B39: equine IgG1 Q311F (antibody, part only; not given: variable domains, not shown: another chain or arm of the molecule)
constant: B25 constant with W174T, Q199F
B40: equine IgG1 Q311S (antibody, part only; not given: variable domains, not shown: another chain or arm of the molecule)
constant: B25 constant with W174T, Q199S
B41: equine IgG1 Q311K (antibody, part only; not given: variable domains, not shown: another chain or arm of the molecule)
constant: B25 constant with W174T, Q199K
B42: equine IgG1 Q311V (antibody, part only; not given: variable domains, not shown: another chain or arm of the molecule)
constant: B25 constant with W174T, Q199V
B43: equine IgG1 Q311E (antibody, part only; not given: variable domains, not shown: another chain or arm of the molecule)
constant: B25 constant with W174T, Q199E
B44: equine IgG1 Q311H (antibody, part only; not given: variable domains, not shown: another chain or arm of the molecule)
constant: B25 constant with W174T, Q199H

The binders below were run against equine FcRn (large alpha subunit p51) / equine beta-2-microglobulin complex, biotinylated (equine) (UniProt P30441) (assay: SPR (Biacore), pH 6).
UniProt P30441, sequence (P30441 21-118, one chain of several): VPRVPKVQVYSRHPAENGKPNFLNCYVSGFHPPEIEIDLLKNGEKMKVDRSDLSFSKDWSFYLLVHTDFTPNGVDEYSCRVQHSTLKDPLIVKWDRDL

Row | Binder | Kd [nM]
1 | B1 | 25.6
2 | B2 | 24.5
3 | B3 | 27.1
4 | B4 | 252
5 | B5 | 5.2
6 | B6 | 27.2
7 | B7 | 13.2
8 | B8 | 13.3
9 | B9 | 492
10 | B10 | 30.9
11 | B11 | 24.7
12 | B12 | 17.5
13 | B13 | 23.3
14 | B14 | 20.3
15 | B15 | 20.2
16 | B16 | 45
17 | B17 | 15.3
18 | B18 | 21.4
19 | B19 | 48.3
20 | B20 | 22.2
21 | B21 | 26.9
22 | B22 | 24.1

Row | Binder | Kd [nM]
23 | B23 | 34.4
24 | B24 | 48.7
25 | B25 | 18.4
26 | B26 | 24.3
27 | B27 | 54.6
28 | B28 | 21
29 | B29 | 20.1
30 | B30 | 12.6
31 | B31 | 10.1
32 | B32 | 47.5
33 | B33 | 15
34 | B34 | 36.7
35 | B35 | 15.7
36 | B36 | 12
37 | B37 | 16.1
38 | B38 | 17.4
39 | B39 | 20.3
40 | B40 | 24.4
41 | B41 | 14.7
42 | B42 | 16.3
43 | B43 | 67.3
44 | B44 | 24.3

— patent US20260070987A1
